# Assay results: article PMC9233744
# No end group written: not given here.
# Molecular target: Rgg144 (recombinant, Streptococcus pneumoniae D39, SPD_0144) (Streptococcus pneumoniae D39)
# Experiment: fluorescence polarisation
Molecule,Kd [µM],IC50 [µM]
"SEWVIVIPFLTNL (also: FITC label, position not given here) [FITC-labeled SHP144 (SHP144-C13), wild type]",6.6,
"SEWVIVIPALTNL (also: FITC label, position not given here) [FITC-labeled SHP144 F22A]",7.1,
"SEWVIVIPFLTAL (also: FITC label, position not given here) [FITC-labeled SHP144 N25A]",3.3,
"SEWAIVIPFLTNL (also: FITC label, position not given here) [FITC-labeled SHP144 V17A]",9.7,
"SEWVIVIAFLTNL (also: FITC label, position not given here) [FITC-labeled SHP144 P21A]",1.7,
"SAWVIVIPFLTNL (also: FITC label, position not given here) [FITC-labeled SHP144 E15A]",3.3,
"SEWVIVIPFATNL (also: FITC label, position not given here) [FITC-labeled SHP144 L23A]",4.3,
"SEWVIVIPFLTNA (also: FITC label, position not given here) [FITC-labeled SHP144 L26A]",3.4,
"SEWVIVAPFLTNL (also: FITC label, position not given here) [FITC-labeled SHP144 I20A]",23.5,
"SEWVIVIPFLTNL [unlabeled SHP144 (13-residue synthetic peptide, wild type)]",,86.8
"SEAVIVIPFLTNL (also: FITC label, position not given here) [FITC-labeled SHP144 W16A]",50,
"SEWVIVIPFLANL (also: FITC label, position not given here) [FITC-labeled SHP144 T24A]",3.3,
"SEWVIAIPFLTNL (also: FITC label, position not given here) [FITC-labeled SHP144 V19A]",4,
"AEWVIVIPFLTNL (also: FITC label, position not given here) [FITC-labeled SHP144 S14A]",8.1,
"SEWVAVIPFLTNL (also: FITC label, position not given here) [FITC-labeled SHP144 I18A]",> 100,

# Molecular target: Rgg144 (recombinant, Streptococcus pneumoniae D39, SPD_0144) (Streptococcus pneumoniae D39)
# Experiment: SEC
row,Molecule,stoichiometry N
1,"Rgg144 (recombinant, Streptococcus pneumoniae D39, SPD_0144) (natural protein)",2
